# Source: US20210380703A1 (RIGEL PHARMACEUTICALS, published 2021)
# Biological target: ACVR2A on primary human myotubes (human, UniProt P27037 20-513)
# Assay: cell-based or functional assay
# Chain of ACVR2A on primary human myotubes (P27037 20-513): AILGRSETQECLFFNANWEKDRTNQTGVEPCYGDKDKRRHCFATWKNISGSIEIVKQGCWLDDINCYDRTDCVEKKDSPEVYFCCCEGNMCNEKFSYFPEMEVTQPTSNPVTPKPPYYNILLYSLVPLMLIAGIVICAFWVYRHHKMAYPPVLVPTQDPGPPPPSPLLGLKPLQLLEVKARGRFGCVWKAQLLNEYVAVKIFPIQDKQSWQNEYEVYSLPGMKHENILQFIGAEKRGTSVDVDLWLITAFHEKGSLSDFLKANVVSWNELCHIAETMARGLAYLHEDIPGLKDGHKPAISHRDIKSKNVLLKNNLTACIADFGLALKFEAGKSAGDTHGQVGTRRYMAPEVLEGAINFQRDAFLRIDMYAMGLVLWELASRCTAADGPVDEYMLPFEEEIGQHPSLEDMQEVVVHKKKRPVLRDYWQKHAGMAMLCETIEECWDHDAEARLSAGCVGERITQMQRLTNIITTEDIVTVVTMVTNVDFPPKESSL
row,Phospho-SMAD3 Human Skeletal Muscle GDF8,Binder
1,0.027,"374_C12 (antibody, V domains shown) VH: EVQLLESGGGLVQPGGSLRLSCAASGFTFSSYSMNWVRQAPGKGLEWVAGINYNGGYKSYADSVKGRFTISRDNSKNTLYLQMNSLRAEDTAVYYCARGANWHDTALDYWGQGTLVTVSS VL: DIQMTQSPSSLSASVGDRVTITCRASQSILTYLNWYQQKPGKAPKLVIYAATSRASGVPSRFSGSGSGTDFTLTISSLQPEDFATYYCQQSDNSPLTFGGGTKVEIK"
2,0.189,"374_C09 (antibody, V domains shown) VH: EVQLLESGGGLVQPGGSLRLSCAASGFTFDSYGMNWVRQAPGKGLEWVSSINYNGGYKGYADSVKGRFTISRDNSKNTLYLQMNSLRAEDTAVYYCARGANWHDTHLDYWGQGTLVTVSS VL: DIQMTQSPSSLSASVGDRVTITCRASQSIVSYLNWYQQKPGKAPKLVIYAATSRASGVPSRFSGSGSGTDFTLTISSLQPEDFATYYCQQSYELPLTFGGGTKVEIK"
3,0.126,"374_D10 (antibody, V domains shown) VH: EVQLLESGGGLVQPGGSLRLSCAASGFTFSSYGMHWVRQAPGKGLEWVASINYNGGYTSYADSVKGRFTISRDNSKNTLYLQMNSLRAEDTAVYYCARGANWHDTHLDYWGQGTLVTVSS VL: DIQMTQSPSSLSASVGDRVTITCRASQSILTYVNWYQQKPGKAPKLLIYAATSRASGVPSRFSGSGSGTDFTLTISSLQPEDFATYYCQQSYDNPLTFGGGTKVEIK"
4,0.014,"375_A07 (antibody, V domains shown) VH: EVQLLESGGGLVQPGGSLRLSCAASGFTFDSYSMNWVRQAPGKGLEWVSSINYNSGYTGYADSVKGRFTISRDNSKNTLYLQMNSLRAEDTAVYYCARGANWHDTHLDYWGQGTLVTVSS VL: DIQMTQSPSSLSASVGDRVTITCRASQSILTYLNWYQQKPGKAPKLLIYAATSRASGVPSRFSGSGSGTDFTLTISSLQPEDFATYYCQQSYDTPLTFGGGTKVEIK"
5,0.034,"374_G08 (antibody, V domains shown) VH: EVQLLESGGGLVQPGGSLRLSCAASGFTFDSYSMNWVRQAPGKGLEWVSGINYNGGYTSYADSVKGRFTISRDNSKNTLYLQMNSLRAEDTAVYYCARGANWHDTALDYWGQGTLVTVSS VL: DIQMTQSPSSLSASVGDRVTITCRASQSILTYVNWYQQKPGKAPKLVIYAATSRASGVPSRFSGSGSGTDFTLTISSLQPEDFATYYCQQSYDSPLTFGGGTKVEIK"
6,1.11,"374_C01 (antibody, V domains shown) VH: EVQLLESGGGLVQPGGSLRLSCAASGFTFDSYGMNWVRQAPGKGLEWVSGINYNSGYKSYADSVKGRFTISRDNSKNTLYLQMNSLRAEDTAVYYCARGANWHDTALDYWGQGTLVTVSS VL: DIQMTQSPSSLSASVGDRVTITCRASQSILTYLNWYQQKPGKAPKLLIYAATSRASGVPSRFSGSGSGTDFTLTISSLQPEDFATYYCQQSYETPLTFGGGTKVEIK"
7,0.027,"374_B03 (antibody, V domains shown) VH: EVQLLESGGGLVQPGGSLRLSCAASGFTFDSYSMNWVRQAPGKGLEWVSGINYNGGYTSYADSVKGRFTISRDNSKNTLYLQMNSLRAEDTAVYYCARGANWHDTALDYWGQGTLVTVSS VL: DIQMTQSPSSLSASVGDRVTITCRASQSILTYLNWYQQKPGKAPKLVIYAATSRASGVPSRFSGSGSGTDFTLTISSLQPEDFATYYCQQSYDSPLTFGGGTKVEIK"
8,0.0091,"375_E10 (antibody, V domains shown) VH: EVQLLESGGGLVQPGGSLRLSCAASGFTFSSYSMNWVRQAPGKGLEWVSGINYNGGYTSYADSVKGRFTISRDNSKNTLYLQMNSLRAEDTAVYYCARGANWHDTALDYWGQGTLVTVSS VL: DIQMTQSPSSLSASVGDRVTITCRASQSILSYLNWYQQKPGKAPKLVIYAATSRASGVPSRFSGSGSGTDFTLTISSLQPEDFATYYCQQSYDNPLTFGGGTKVEIK"
9,0.0469,"375_A12 (antibody, V domains shown) VH: EVQLLESGGGLVQPGGSLRLSCAASGFTFSSYSMNWVRQAPGKGLEWVSGINYNSGYKSYADSVKGRFTISRDNSKNTLYLQMNSLRAEDTAVYYCARGANWHDTALDYWGQGTLVTVSS VL: DIQMTQSPSSLSASVGDRVTITCRASQSILSYLNWYQQKPGKAPKLVIYAVTSRASGVPSRFSGSGSGTDFTLTISSLQPEDFATYYCQQSYETPLTFGGGTKVEIK"
10,0.0177,"374_D05 (antibody, V domains shown) VH: EVQLLESGGGLVQPGGSLRLSCAASGFTFDSYSMNWVRQAPGKGLEWVSGINYNSGYTGYADSVKGRFTISRDNSKNTLYLQMNSLRAEDTAVYYCARGANWHDTHLDYWGQGTLVTVSS VL: DIQMTQSPSSLSASVGDRVTITCRASQSILTYLNWYQQKPGKAPKLLIYAATSRASGVPSRFSGSGSGTDFTLTISSLQPEDFATYYCQQSYDTPLTFGGGTKVEIK"
11,0.0076,"375_F02 (antibody, V domains shown) VH: EVQLLESGGGLVQPGGSLRLSCAASGFTFSSYSMNWVRQAPGKGLEWVASINYNSGYTSYADSVKGRFTISRDNSKNTLYLQMNSLRAEDTAVYYCARGANWHDTHLDYWGQGTLVTVSS VL: DIQMTQSPSSLSASVGDRVTITCRASQSILSYLNWYQQKPGKAPKLLIYAATSRASGVPSRFSGSGSGTDFTLTISSLQPEDFATYYCQQSYDSPLTFGGGTKVEIK"

# Further lines, the binder ahead of its results:
row,Binder,Phospho-SMAD3 Human Skeletal Muscle GDF8
1,"370_E04 (antibody, V domains shown) VH: EVQLLESGGGLVQPGGSLRLSCAASGFTFSSYSMNWVRQAPGKGLEWVANINYNGGYKGYADSVKGRFTISRDNSKNTLYLQMNSLRAEDTAVYYCARGATWHDTHLDYWGQGTLVTVSS VL: DIQMTQSPSSLSASVGDRVTITCRASQSILTYLNWYQQKPGKAPKLLIYAVTSLHSGVPSRFSGSGSGTDFTLTISSLQPEDFATYYCQQSYETPLTFGGGTKVEIK",0.0136
2,"372_B09 (antibody, V domains shown) VH: EVQLLESGGGLVQPGGSLRLSCAASGFTFSSYSMNWVRQAPGKGLEWVSSINYNSGYTSYADSVKGRFTISRDNSKNTLYLQMNSLRAEDTAVYYCARGATWHDTHLDYWGQGTLVTVSS VL: DIQMTQSPSSLSASVGDRVTITCRASQSILTYLNWYQQKPGKAPKLLIYAATSRASGVPSRFSGSGSGTDFTLTISSLQPEDFATYYCQQSYETPLTFGGGTKVEIK",0.0182
3,"373_C07 (antibody, V domains shown) VH: EVQLLESGGGLVQPGGSLRLSCAASGFTFDSYSMNWVRQAPGKGLEWVAGINYNSGYTSYADSVKGRFTISRDNSKNTLYLQMNSLRAEDTAVYYCARGANWHDTHLDYWGQGTLVTVSS VL: DIQMTQSPSSLSASVGDRVTITCRASQSILTYLNWYQQKPGKAPKLVIYAATSRASGVPSRFSGSGSGTDFTLTISSLQPEDFATYYCQQSYETPLTFGGGTKVEIK",0.0048
4,"373_F07 (antibody, V domains shown) VH: EVQLLESGGGLVQPGGSLRLSCAASGFTFSSYSMNWVRQAPGKGLEWVSGINYNSGYKSYADSVKGRFTISRDNSKNTLYLQMNSLRAEDTAVYYCARGATWHDTHLDYWGQGTLVTVSS VL: DIQMTQSPSSLSASVGDRVTITCRASQSILSYLNWYQQKPGKAPKLLIYAATSLASGVPSRFSGSGSGTDFTLTISSLQPEDFATYYCQQSYETPLTFGGGTKVEIK",0.0069
5,"371_B01 (antibody, V domains shown) VH: EVQLLESGGGLVQPGGSLRLSCAASGFTFDSYSMNWVRQAPGKGLEWVSNINYNSGYTGYADSVKGRFTISRDNSKNTLYLQMNSLRAEDTAVYYCARGATWHDTHLDYWGQGTLVTVSS VL: DIQMTQSPSSLSASVGDRVTITCRASQSILSYVNWYQQKPGKAPKLLIYAATSLASGVPSRFSGSGSGTDFTLTISSLQPEDFATYYCQQSYDLPLTFGGGTKVEIK",0.0076
6,"370_F12 (antibody, V domains shown) VH: EVQLLESGGGLVQPGGSLRLSCAASGFTFSDYSMNWVRQAPGKGLEWVANINYNGGYTGYADSVKGRFTISRDNSKNTLYLQMNSLRAEDTAVYYCARGATWHDTHLDYWGQGTLVTVSS VL: DIQMTQSPSSLSASVGDRVTITCRASQSILSYLNWYQQKPGKAPKLLIYAASSLQSGVPSRFSGSGSGTDFTLTISSLQPEDFATYYCQQSYDSPLTFGGGTKVEIK",0.0066
7,"371_E12 (antibody, V domains shown) VH: EVQLLESGGGLVQPGGSLRLSCAASGFTFDSYSMNWVRQAPGKGLEWVSGINYNSGYKSYADSVKGRFTISRDNSKNTLYLQMNSLRAEDTAVYYCARGATWHDTHLDYWGQGTLVTVSS VL: DIQMTQSPSSLSASVGDRVTITCRASQSILSYLNWYQQKPGKAPKLLIYAATSLASGVPSRFSGSGSGTDFTLTISSLQPEDFATYYCQQSYDTPLTFGGGTKVEIK",0.0374
8,"373_H03 (antibody, V domains shown) VH: EVQLLESGGGLVQPGGSLRLSCAASGFTFSSYSMNWVRQAPGKGLEWVSGINYNSGYKSYADSVKGRFTISRDNSKNTLYLQMNSLRAEDTAVYYCARGANWHDTALDYWGQGTLVTVSS VL: DIQMTQSPSSLSASVGDRVTITCRASQSILSYLNWYQQKPGKAPKLLIYATTSRASGVPSRFSGSGSGTDFTLTISSLQPEDFATYYCQQSYENPLTFGGGTKVEIK",0.0129
9,"373_G08 (antibody, V domains shown) VH: EVQLLESGGGLVQPGGSLRLSCAASGFTFDSYSMNWVRQAPGKGLEWVSNINYNGGYTSYADSVKGRFTISRDNSKNTLYLQMNSLRAEDTAVYYCARGANWHDTALDYWGQGTLVTVSS VL: DIQMTQSPSSLSASVGDRVTITCRASQSILTYLNWYQQKPGKAPKLLIYAATSLASGVPSRFSGSGSGTDFTLTISSLQPEDFATYYCQQSYDSPLTFGGGTKVEIK",0.0057
10,"371_F09 (antibody, V domains shown) VH: EVQLLESGGGLVQPGGSLRLSCAASGFTFSSYSMNWVRQAPGKGLEWVAGINYNGGYTSYADSVKGRFTISRDNSKNTLYLQMNSLRAEDTAVYYCARGATWHDTHLDYWGQGTLVTVSS VL: DIQMTQSPSSLSASVGDRVTITCRASQSILTYLNWYQQKPGKAPKLLIYAATSRASGVPSRFSGSGSGTDFTLTISSLQPEDFATYYCQQSYDNPLTFGGGTKVEIK",0.0311
